Assays:
ABP1 = test: DHFR-PCA on solid medium, bait ABP1 (Fig. 1B); type: cell-based, Saccharomyces cerevisiae; conditions: bait ABP1, label = prey; 2-4 replicates
Source text: Supplement 41467_2021_21873_MOESM8_ESM.xlsx, sheet "Fig1B" | column: medsize; medrep; Ratio; Score

[1] = tested on: growth of ABP1 SH3-swapped strains in hygromycin B; conditions: cited from earlier work
Source text: Having determined that multiple PPIs require SH3s, we asked whether the latter establish PPI specificity independently from their host proteins by swapping domains (Fig. 2A). Using the second round of genome editing, we individually replaced Abp1 SH3 with the 27 yeast SH3s and 3 human Abp1 orthologs’ SH3s (CTTN, HCLS1, and DBNL, Fig. 2B). The reintroduction of its own SH3 (Abp1SH3 in Abp1) reconstitutes almost perfectly Abp1’s interaction profile (Kendall’s τ = 0.93, Fig. 2B).

Abp1 (1xFLAG) = test: Western blot expression level of Abp1 SH3 mutants (Fig. S3C-D); type: cell-based, Saccharomyces cerevisiae
Protocol: Precultures of yeast cells expressing baits fused with the DHFR F[1,2]-FLAG were grown overnight at 30 °C with agitation in synthetic complete medium. The next day, cells were expanded in synthetic complete medium to reach their exponential phase (OD600 of around 1.0), pelleted, and frozen at −80 °C. The equivalent of fifty OD600 of cells was resuspended in ice-cold yeast lysis buffer (10 mM Tris-HCl pH 7.4, 150 mM NaCl, 0.5 mM EDTA (Millipore Sigma), 1% Triton X-100 (Millipore Sigma), and one cOmplete Mini Protease Inhibitor Cocktail (Millipore Sigma) per 10 mL) with […] glass beads (Millipore Sigma) and disrupted at 4 °C by 10 cycles of 2 min vortexing and 2 min cooldown. The equivalent of […] of lysed cells was used for the immunoprecipitation of the bait proteins using FLAG-M2 agarose beads (Millipore Sigma). The beads were incubated with the cell lysates for 120 min at 4 °C with a slow rotation, followed by three washes with the yeast lysis buffer.
Protein extracts and affinity-purified baits from yeast and human lysed cells were migrated on 10% polyacrylamide gels. The separated proteins were then transferred to nitrocellulose membranes. Validation of correct protein loading was done with ponceau staining of the membranes. Before the primary antibody incubations, membranes were blocked in 5% milk. Protein signals were detected on an Amersham Imager 600RGB (GE Healthcare) following the incubation of the membranes with the appropriate HRP-conjugated secondary antibodies and the Clarity Western ECL Substrate (Bio-Rad). The antibodies used in this study are M2-HRP (A8592, Sigma, 1/50,000), rabbit anti-FLAG (F7425, Sigma, 1/1000), PAK (SC-881, Santa Cruz, 1/200), p130cas/BCAR1 (SC-860, Santa Cruz, 1/200), actin (Cell Signaling Technology, 1/2000), anti-mouse HRP (Cell Signaling Technology, 1/10,000) and anti-rabbit HRP (Cell Signaling Technology, 1/10,000). The quantification of the WB signals was performed with the Amersham Imager 600 analysis software (GE Healthcare). […]
C, WB comparing expression levels of selected Abp1 SH3 mutants with WT Abp1. An asterisk represents a stop codon, which inhibits translation of the 1xFLAG epitope. D, Quantification of the relative level of expression of Abp1 SH3 mutants by WB as in C, (log2 of Abp1 SH3 mutant/Abp1 WT ratio, WB relative level of expression of 0 for WT Abp1) compared to their DMS scores (Hua2 (left): Pearson’s r = -0.34, p-value = 0.46, Lsb3 […]
(right): Pearson’s r = -0.81, p-value = 0.03). […]
Most […]
interface residues sensitive to mutations, such as Y7, E13, E16, V3 1, D32, D34, L48 and Y53, specifically affect Hua2 PPI. See also Supplementary Table 4.

B1: YBL039C (protein, UniProt P28274 1-579, looked up)
CTP synthase 1: MKYVVVSGGVISGIGKGVLASSTGMLMKTLGLKVTSIKIDPYMNIDAGTMSPLEHGECFVLDDGGETDLDLGNYERYLGVTLTKDHNITTGKIYSHVIAKERKGDYLGKTVQIVPHLTNAIQDWIERVAKIPVDDTGMEPDVCIIELGGTVGDIESAPFVEALRQFQFKVGKENFALIHVSLVPVIHGEQKTKPTQAAIKGLRSLGLVPDMIACRCSETLDKPTIDKIAMFCHVGPEQVVNVHDVNSTYHVPLLLLEQKMIDYLHARLKLDEISLTEEEKQRGLELLSKWKATTGNFDESMETVKIALVGKYTNLKDSYLSVIKALEHSSMKCRRKLDIKWVEATDLEPEAQESNKTKFHEAWNMVSTADGILIPGGFGVRGTEGMVLAARWARENHIPFLGVCLGLQIATIEFTRSVLGRKDSHSAEFYPDIDEKNHVVVFMPEIDKETMGGSMRLGLRPTFFQNETEWSQIKKLYGDVSEVHERHRHRYEINPKMVDELENNGLIFVGKDDTGKRCEILELKNHPYYIATQYHPEYTSKVLDPSKPFLGLVAASAGILQDVIEGKYDLEAGENKFNF
medrep (log2 median colony size normalized to plate background, PCA score) (ABP1): 3.877

B2: ABP1: yeast SH3-containing protein; SH3-deleted (D) or gene-deleted (KO) strain (protein, UniProt P15891 2-592, looked up)
Actin-binding protein: ALEPIDYTTHSREIDAEYLKIVRGSDPDTTWLIISPNAKKEYEPESTGSSFHDFLQLFDETKVQYGLARVSPPGSDVEKIIIIGWCPDSAPLKTRASFAANFAAVANNLFKGYHVQVTARDEDDLDENELLMKISNAAGARYSIQTSSKQQGKASTPPVKKSFTPSKSPAPVSKKEPVKTPSPAPAAKISSRVNDNNDDDDWNEPELKERDFDQAPLKPNQSSYKPIGKIDLQKVIAEEKAKEDPRLVQKPTAAGSKIDPSSDIANLKNESKLKRDSEFNSFLGTTKPPSMTESSLKNDDDKVIKGFRNEKSPAQLWAERKAKQNSGNAETKAEAPKPEVPEDEPEGEPDVKDLKSKFEGLAASEKEEEEMENKFAPPPKKSEPTIISPKPFSKPQEPVKAEEAEQPKTDYKKIGNPLPGMHIEADNEEEPEENDDDWDDDEDEAAQPPLPSRNVASGAPVQKEEPEQEEIAPSLPSRNSIPAPKQEEAPEQAPEEEIEEEAEEAAPQLPSRSSAAPPPPPRRATPEKKPKENPWATAEYDYDAAEDNELTFVENDKIINIEFVDDDWWLGELEKDGSKGLFPSNYVSLGN
Hygromycin phenotype, literature [1]: hygromycin resistance

B3: WT (protein, UniProt P15891 2-592, looked up)
Actin-binding protein: ALEPIDYTTHSREIDAEYLKIVRGSDPDTTWLIISPNAKKEYEPESTGSSFHDFLQLFDETKVQYGLARVSPPGSDVEKIIIIGWCPDSAPLKTRASFAANFAAVANNLFKGYHVQVTARDEDDLDENELLMKISNAAGARYSIQTSSKQQGKASTPPVKKSFTPSKSPAPVSKKEPVKTPSPAPAAKISSRVNDNNDDDDWNEPELKERDFDQAPLKPNQSSYKPIGKIDLQKVIAEEKAKEDPRLVQKPTAAGSKIDPSSDIANLKNESKLKRDSEFNSFLGTTKPPSMTESSLKNDDDKVIKGFRNEKSPAQLWAERKAKQNSGNAETKAEAPKPEVPEDEPEGEPDVKDLKSKFEGLAASEKEEEEMENKFAPPPKKSEPTIISPKPFSKPQEPVKAEEAEQPKTDYKKIGNPLPGMHIEADNEEEPEENDDDWDDDEDEAAQPPLPSRNVASGAPVQKEEPEQEEIAPSLPSRNSIPAPKQEEAPEQAPEEEIEEEAEEAAPQLPSRSSAAPPPPPRRATPEKKPKENPWATAEYDYDAAEDNELTFVENDKIINIEFVDDDWWLGELEKDGSKGLFPSNYVSLGN
Ratio Mutant/WT Flag (Abp1 (1xFLAG); Western blot Flag signal of mutant relative to WT): 1 | Flag (2 bands) (Abp1 (1xFLAG); Western blot, Flag signal, 2 bands): 36554
